Measurements reported in patent US20010041670A1 (published 2001).

What was measured:
Thrombospondin-1 (TSP-1) [1] = biological target: T1, Thrombospondin-1 (TSP-1) (human, UniProt P07996 19-1170); test: cell-based or functional assay
Thrombospondin-1 (TSP-1) [2] = biological target: T1, Thrombospondin-1 (TSP-1); test: solid phase competition: 125I-TSP-1 binding to immobilized HRGP
Method: Solid phase binding assays were performed as described (18). […] Non-specific binding was determined by carrying out binding in the presence of excess unlabeled ligand.

T1 sequence (P07996 19-1170): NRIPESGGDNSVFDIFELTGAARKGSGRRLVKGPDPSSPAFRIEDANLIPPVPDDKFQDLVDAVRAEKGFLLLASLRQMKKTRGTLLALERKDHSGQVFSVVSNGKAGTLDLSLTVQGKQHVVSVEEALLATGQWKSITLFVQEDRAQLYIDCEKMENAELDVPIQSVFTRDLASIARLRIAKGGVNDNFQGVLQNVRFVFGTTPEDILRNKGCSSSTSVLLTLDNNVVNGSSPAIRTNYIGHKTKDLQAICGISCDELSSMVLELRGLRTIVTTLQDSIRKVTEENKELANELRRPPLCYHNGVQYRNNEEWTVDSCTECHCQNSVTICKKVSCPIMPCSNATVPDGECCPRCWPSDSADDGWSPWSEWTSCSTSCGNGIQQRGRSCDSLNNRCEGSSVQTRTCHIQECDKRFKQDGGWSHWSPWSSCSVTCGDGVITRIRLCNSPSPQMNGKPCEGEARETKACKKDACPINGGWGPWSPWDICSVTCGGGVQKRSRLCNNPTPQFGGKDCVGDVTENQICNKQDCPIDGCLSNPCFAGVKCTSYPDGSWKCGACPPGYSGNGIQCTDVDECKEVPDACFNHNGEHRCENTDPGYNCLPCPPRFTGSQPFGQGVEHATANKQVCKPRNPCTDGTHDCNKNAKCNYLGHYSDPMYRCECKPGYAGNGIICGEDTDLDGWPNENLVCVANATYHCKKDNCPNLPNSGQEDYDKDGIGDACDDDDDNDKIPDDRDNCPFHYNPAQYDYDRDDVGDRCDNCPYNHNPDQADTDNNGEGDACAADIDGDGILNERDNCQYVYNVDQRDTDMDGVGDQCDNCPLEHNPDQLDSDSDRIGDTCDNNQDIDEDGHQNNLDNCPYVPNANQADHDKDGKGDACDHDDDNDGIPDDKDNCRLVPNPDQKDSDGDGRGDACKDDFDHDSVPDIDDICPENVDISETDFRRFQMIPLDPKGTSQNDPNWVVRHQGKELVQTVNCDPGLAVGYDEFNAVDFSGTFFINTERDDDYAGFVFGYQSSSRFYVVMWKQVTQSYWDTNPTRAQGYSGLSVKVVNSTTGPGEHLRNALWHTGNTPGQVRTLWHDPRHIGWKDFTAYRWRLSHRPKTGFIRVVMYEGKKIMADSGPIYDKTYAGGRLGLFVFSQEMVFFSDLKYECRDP

| Binder | area of neovascularization relative to bFGF alone, corneal assay, pellets with bFGF, TSP-1 and HRGP (100 ng, HRGP:TSP-1 molar ratio 3:1) (Thrombospondin-1 (TSP-1) [1]) [%] | binding result (Thrombospondin-1 (TSP-1) [2]) |
| --- | --- | --- |
| Histidine-rich glycoprotein (HRGP) (other, human, UniProt P04196 19-525, looked up) VSPTDCSAVEPEAEKALDLINKRRRDGYLFQLLRIADAHLDRVENTTVYYLVLDVQESDCSVLSRKYWNDCEPPDSRRPSEIVIGQCKVIATRHSHESQDLRVIDFNCTTSSVSSALANTKDSPVLIDFFEDTERYRKQANKALEKYKEENDDFASFRVDRIERVARVRGGEGTGYFVDFSVRNCPRHHFPRHPNVFGFCRADLFYDVEALDLESPKNLVINCEVFDPQEHENINGVPPHLGHPFHWGGHERSSTTKPPFKPHGSRDHHHPHKPHEHGPPPPPDERDHSHGPPLPQGPPPLLPMSCSSCQHATFGTNGAQRHSHNNNSSDLHPHKHHSHEQHPHGHHPHAHHPHEHDTHRQHPHGHHPHGHHPHGHHPHGHHPHGHHPHCHDFQDYGPCDPPPHNQGHCCHGHGPPPGHLRRRGPGKGPRPFHCRQIGSVYRLPPLRKGEVLPLPEANFPSFPLPHHKHPLKPDNQPFPQSVSESCPGKFKSGFPQVSMFFTHTFPK | 82.5 |  |
| CD36 FP298-439 (other, UniProt P16671 298-439, looked up, also called GST-CD36 fusion protein; not shown: Glutathione-S-transferase fusion partner) KAFASPVENPDNYCFCTEKIISKNCTSYGVLDISKCKEGRPVYISLPHFLYASPDVSEPIDGLNPNEEEHRTYLDIEPITGFTLQFAKRLQVNLLVKPSEKIQVLKNLKRNYIVPILWLNETGTIGDEKANMFRSQVTGKIN |  | no binding |
